From the nanobody polyreactivity screen of Harvey et al. (2022)

Assay: yeast display, Sf9 membrane polyspecificity reagent, FACS + sequencing; frameworks hold sequencing errors
Outline: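 Sorting gates, low and high (top ~1%), were placed on anti-HA fluorescence to track expression and on streptavidin fluorescence to track reagent binding. A clone's polyreactivity label is taken from the gate it came out of. The reagent was 10% biotinylated, detergent-solubilized Sf9 membrane, applied for 1 hour at 4 °C to galactose-induced yeast display cells.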
In the case of “QVQLVESGGGLVQAGGSLRLSCAASGFTFVAYAMGWYRQAPGKERELVAAITWSGSRTYYADSVKGRFTISRDNAKNTVYLQMNSLKPEDTAVYYCAARKTEGHYGYWGQGTQVTVSS”, the “polyreactivity (PSR sort gate)” value is reported as “high polyreactivity”.
With “QVQLLESGGGLVQAGGSLRLSCAPSGRTFVFNGRGWYRPATAKERELVAAINRSGGSTYYAVSVKGRFTISRDNGKNTVYLQMNSLKPEDTAVYYCLIQHNGLGYWGQGTQVTVSS” the “polyreactivity (PSR sort gate)” value was “low polyreactivity”.
For “QVQLVESGGGLVQAGGSLRLSCAASGIILYPYAMGWYRQAPGKERELVAAISWSGGSTYYADSVKGRFTISRDKAKNTVYLQMNSLKPEDTAVYYCNARYYGPSWNSYDYWGQGTQVTVSS”, the “polyreactivity (PSR sort gate)” value was “high polyreactivity”.
In the case of “QDQHVESGRGLVQAGGSLRLSCAASGLIFPRNAMGWYRQAPGKERELVAVISRSGTSTYYADSVKGRFTISRDNAKNTVYLQMNSLKPEDTAVYYCAAYSRRGSSLRGRYGYWGQGTQVTVSS”, the “polyreactivity (PSR sort gate)” value is reported as “high polyreactivity”.
In the case of “QVQLVESGGGLVQAGGSLRLSCAASGSIFGAYAMGWYRQAPGKERELVAAISSSVDRTYYADSVKGRFTNSRDNAKNTVYLQMNCLKPEDTAVYYCAARWGTRDRTKYYYWGQGTQVTVSS”, the “polyreactivity (PSR sort gate)” value is reported as “high polyreactivity”.
With “QVQLVESGGGLVQAGGSLRLSCAASGFLFRYYARGWYRQAPGKERELVADISQNGDSTYYADSVKGRFTISRDTAKITVYLQMNCLNPDDTAVYYCNADNDPWPYFDGIFSVDMDYWGQGTQVTVSS” the “polyreactivity (PSR sort gate)” value was “low polyreactivity”.
For “QFQLVESGGGLVQAGGSLRLSSAASGSTFYYNAMGWYRQAPGKERELVAVITSGVSTYYADSVKGRFTISRDNAKNTVYLQMNSLKPVDTAVYYCAADLYRPYEYQLDYWGHGTQVTVSS”, the “polyreactivity (PSR sort gate)” value was “low polyreactivity”.
In the case of “QVQLVESGGGLVQAGGSLRLSCAASGGTFEYNAMGWYRPAPGKERELVAAISKSGGRTYYADSVKGRFTISRDNAKNTVYLQMNSLKPEDTAVYYCAKRYVWGQGTQVTVSS”, the “polyreactivity (PSR sort gate)” value is reported as “high polyreactivity”.
In the case of “QVQIVESGGGLVQAGGSLRIICAASGSTFDPNAMGWYRQAPGKERELVAGISTGGTRTYYADSVKGRFTISRDNAKNTVFLQLKSLKPEDTAVYYCAARFTYNVLDTIYRLYYWGQGTQVTVSS”, the “polyreactivity (PSR sort gate)” value is reported as “high polyreactivity”.
In the case of “QVQLVESGGGLVQAGGSLRLSCAASGFTFTRNAMGWYRQAPGKEMELVAGITFIGTSTYYADSVKGRFTISRDNAKNTVYLQMNSLKPEDTAVYYCAKEYDDYVYGYHYTRYGYWGQGTQVTVSS”, the “polyreactivity (PSR sort gate)” value is reported as “low polyreactivity”.
With “QVQLVESGGCLVQAGGSLRLSCAASGSIYGYTMGWYRQAPGKERELVAAINRRADRTYYADSVKGRFTISRDNAKNTVYLQMNSLKPEDTAVYYCATLQGDSSSQYDYWGHGTQVTVSS” the “polyreactivity (PSR sort gate)” value was “high polyreactivity”.
With “QVQLVESGGGLVQAGGSLRLSCAPSAGTFSPYDMGWSRQSPGKQRELVASITGSGGSTYFADSVKGRFTISRGNAKNTVYLQMNSLKPEDTAVYYCDAQGYWTYWPYLLRLYDYWGQGTQVTVSS” the “polyreactivity (PSR sort gate)” value was “low polyreactivity”.
With “QVQLHESGSGLVQAGGSLRLSCAASGAIFPANLMGWYRQAPGKERELVAGISYGSITYCADSVKGRFNISRDNAKHTVYLQMNSLKPEDTAVYYCEVWRPGGDEYYYWGQGTQVTVSS” the “polyreactivity (PSR sort gate)” value was “low polyreactivity”.
With “QVQLVESGGGLVQAGGSLRLSCAASGRIFSSYAMGWYRQEPGKERELVAAISRSGARTYYADSVKGRFTISRDNAKNTVYLQMNSLKPEDTAVYYCAAVTVAGYDYWGQGTQVTVSS” the “polyreactivity (PSR sort gate)” value was “high polyreactivity”.
In the case of “QVQLVESGGGLVQAGGSLRLSCAASGRIFRSYAMGGYRQAPGKERELVAAMTSGGSTNYADSVKGRFTISRDNAKNTVYLQMNSLKPEDTAVYYCNADRWKSGYWRYDYWGQGTQVTVSS”, the “polyreactivity (PSR sort gate)” value is reported as “low polyreactivity”.
For “QVQLVESGGGLVQAGGSLRLSCAASGNTFWFYGMGWYRQAPGKERELVAAITSGGSTDYADSVKGRFTISRDNAKNTVYLLLNSLKPEDTAVYYCAAEPVAYYGSSYGYWGQGTQVTVSS”, the “polyreactivity (PSR sort gate)” value was “low polyreactivity”.
With “QDQLVESGGGLVQAGGSLRLSCAASGSTFVRYDMGWYRQAPGKERELVADISWSGVSTYADSVKGRFTISRDNAKNTVYLQMNSLKPEDTAVYYCAKDSDLYQRGGYYWGQGTQVTVSS” the “polyreactivity (PSR sort gate)” value was “low polyreactivity”.
With “QVQLVESGGGLVQAGGSLRLSCADSGFTFIKYAMGWYRQAPGKEREFVATISWNGGNTYYADSVKGRFTISRDNAKNTVYLQMNSLKPEDTAVYYCAARVKYRTRGGTVVSYDYWGQGPQVTVSS” the “polyreactivity (PSR sort gate)” value was “high polyreactivity”.
With “QVQLVESGGGLDQAGGSLRLSCAASGGTFGLYAMGWYRQAPGKERELVAAITWSDSSTYYADSVKGRFTISRDNAKNTVYFQMNSLKPEDTAVYYCNAVRSTSYGSYNYWGQGTQVTVSS” the “polyreactivity (PSR sort gate)” value was “low polyreactivity”.
With “QVQLVETGGGLVQAGGSLRLSCAASGRTFTRYAMGWYRQAPGKERELVAAISSSGASTYYADSVKGRFTISRDNAKNTVYLQMNSLKPEDTAVYYCAAKQTRPSGFGYWGQGTQVTVSS” the “polyreactivity (PSR sort gate)” value was “high polyreactivity”.
For “QVQLVESGGGLVQAGGRLRLTCAASGSIFGSYAMGWYRQEPGIERELVAAIRGRGGNTYYADSVKGRFTISRDNAKNTVYLQMNSLKPQDTAVYYCAAQSFAQYGWRYGYWGQGTQVTLSS”, the “polyreactivity (PSR sort gate)” value was “high polyreactivity”.
In the case of “QVQLVESGGGLVQAGGSLRLSCAASGRIFSNNVMGWYIQAPGKERELVATISTDGRTNYADSVKGRFTISRDNAQNTVYLQMNSLKPEDTAVYFCAATGVTILLSSKSDYWGQGTQVTVSS”, the “polyreactivity (PSR sort gate)” value is reported as “low polyreactivity”.
In the case of “QVQLVESGVGLVQAGGSLRLRCAASGFIFIHNAMGWYRQAPGKERELVAAISYSGGSTYYADSVKGRFTISRDTAKNTVYLQMNSLKPEDTAVYFCNRVQYYRADRMDYWGQGTQVTVSS”, the “polyreactivity (PSR sort gate)” value is reported as “low polyreactivity”.
For “QVQLVESGGGLVQAGGSLRLSCHATGFTFTIYAMGWYRQAPGKERELVATISGRAGRTYYADSVKGRFTISRDIAKNTVYLQMNSLKPEDTAVYYCNAGQWRYPGLYYYWGKGTQVTVSS”, the “polyreactivity (PSR sort gate)” value was “high polyreactivity”.
With “QVQLVESGGGLVQAGGTLRLSCAASGSTFVGYAMGWYRQAPGKERELVAAISSSGSTNYADSVKGRFTISRDNAKNTVYLQMNSLKPEDTAVYYCAALYSYFWLIIDYGYWGQGTQVTVSS” the “polyreactivity (PSR sort gate)” value was “low polyreactivity”.
With “QVQLVESGGGLVQAGGSLRLSCAASGFTFWIYAMGWYRQARGKEWELVAAISASGGYTRYADSVKGRFTISRDNAKNTVYLQMNSLKPEDTAVYYCAAYHGLRRGFDYWGEGTQVTVSS” the “polyreactivity (PSR sort gate)” value was “high polyreactivity”.
For “QVQLVDSGGGLVQAGGSLRLSCDASGSTFLYYAMGWYRQAPGKERELVARITSRFGRTYYADSVKGRFTISRDNAKNTVYLQMNSLKPEDTAVYYCAAYPDYSYYYWGHGTQVTVSS”, the “polyreactivity (PSR sort gate)” value was “high polyreactivity”.
With “QVQLVESGGGLVQAGGSLRLSCAASGLIFGSYAMGWYRQAPGKEMELVAAISWSGGSTNYADSVKGRFTISRDNSKNTVDLQMNSLKPEDTAVYYCAARGYPLGIGRIKRNYWGQGTQVTVSS” the “polyreactivity (PSR sort gate)” value was “high polyreactivity”.
For “QVQLVESGGGLVQAGGSLRLSCAASGSIFGYNDMGWYRQAPGKERELVAAIDWSDDITYYADSVKGRFTISRDNAKNTVYLQMNSLKPEDTAVYYCATKIRLALYFGYVSEYDYWGQGTQVTVSS”, the “polyreactivity (PSR sort gate)” value was “high polyreactivity”.
For “QVQLVESGGGLVQAGGSLRLSCAASGRTFGGNTMGWYRQAPGKERELVAAISFSGGSTYYADSVKGRFTISRDNAKNTVYLQMNSLKPEDTAVYYCAKDPITATTLDERVYYWGQGTQVTVSS”, the “polyreactivity (PSR sort gate)” value was “low polyreactivity”.
For “QVQLVESGGGLVQAGGSLRLSCAASGSTFDTNAMGWYRQAPGKERELVASISSAGSTNYADSVKGRFTISRDNAKNTVYLQMNSLKPEDTAVYYCAKYYGQFYPPTLGYWGQGTQVTVSS”, the “polyreactivity (PSR sort gate)” value was “low polyreactivity”.
For “QVQLVESGGGLVQAGGSLRLSCAASGRIFYTNTMGWYRQAPGKERELVAAIRSGTRTYYADSVKGRFTISRDNAKNTVYLQMNSLKPEDTAVYYCAAYYSYYGGDYWGQGTQVTVSS”, the “polyreactivity (PSR sort gate)” value was “low polyreactivity”.
For “QVQLVESGGGLVQAGGSLRLSCAASGITFEYYAMGWYRQAPGKERELVAAIDTGGSTNYADSVKGRFTISRDNAKNTVYLQMNSLKPEDTAVYYCAADWSWWDGEDYHFEVDYWGQGTQVTVSS”, the “polyreactivity (PSR sort gate)” value was “low polyreactivity”.
With “QVQIVESGGGLVQAGGSLRLSCAASGRIFRSNTMGWYRPAPGKERELVARISKRGGSTNYADSVKGRFTISRDIAKNTVYLQMNRLKPEDTAVYYCAARYYYAGYYVKYYYWGQGTQVTVSS” the “polyreactivity (PSR sort gate)” value was “high polyreactivity”.
In the case of “KVQLVESGGGLVQAGGSLRLSCAASGFTFEGYAMGWYRQAPGKEMELVAAISSNGGRTYYADSVKGRFTISRDNAKNTVYLQMNSLKPEDTAVYYCNARRAYSGPDYDYYHGRRYDYWGQGTQVTVSS”, the “polyreactivity (PSR sort gate)” value is reported as “low polyreactivity”.
In the case of “QVQLVESGGGLVQAGGSLRLSCAASGSIIGSYAMGWYRQAPGKERELVAAISKSGGSTYYADSVKGRFTISRDNAKNTVYLQMNSLKPEDTAVYYCAARAYRYAYRAYDYWGQGTQVTVSS”, the “polyreactivity (PSR sort gate)” value is reported as “high polyreactivity”.
With “QVQLVESGGGLVQAGGSLRLSCAASGRIFYNYAMGWYRQAPGKERELVAAITGGASTYADSVKGRFTISRDNAKNTVYLQMNSLKPEDTAVYYCAVDYYTYSLASGRTRMDYWGQGTQVTVSS” the “polyreactivity (PSR sort gate)” value was “high polyreactivity”.
With “QVQLVESGGGLVQAGGSLRLSCAASGSTFFTNAMGWYRQAPGKERELVAGISYGGGRTYYADSVKGRFTISLDNAKNTVYLQMNRLKPEDTAVYYCNTVTSQAPYYSYVSWGQGTQVTVSS” the “polyreactivity (PSR sort gate)” value was “high polyreactivity”.
For “QVQLVESGGGLVQAGGSLRLSCATSGSIFVFNAMGWYRQAPGKERELVAAIDTSDDITYYADSVKGRFTISRDNAKNTVYLQMNSLKPEDTAVYYCNAYYTYRFNYWGQGTQVTVSS”, the “polyreactivity (PSR sort gate)” value was “high polyreactivity”.
With “QVQLVESGGGLVQAGGSLRLSCAASGRIFRQNAMGWYRQAPGKERELVAAISRGGGSTYYADSVKGRFTISRDNAKNTVYLQMNSLKPDDTAVYYCAAFQAHQTAFDYWGQGTQVTVSS” the “polyreactivity (PSR sort gate)” value was “high polyreactivity”.
With “QVQLVQTGGGLVQAGGSLRLSCAGSGSTFTSYVMGWYRQAPGKERELVAAITSSGGDTYYADSVKGRFTISRDNAKNTVYLQMNSVKPEDTAVYYCATRSYYRSSYYRNRYPYDYWGQGTQVTVSS” the “polyreactivity (PSR sort gate)” value was “low polyreactivity”.
